For data set [1], the target named is T1, CENPC full length (Zea mays) (UniProt Q9XHE1).
T1 sequence: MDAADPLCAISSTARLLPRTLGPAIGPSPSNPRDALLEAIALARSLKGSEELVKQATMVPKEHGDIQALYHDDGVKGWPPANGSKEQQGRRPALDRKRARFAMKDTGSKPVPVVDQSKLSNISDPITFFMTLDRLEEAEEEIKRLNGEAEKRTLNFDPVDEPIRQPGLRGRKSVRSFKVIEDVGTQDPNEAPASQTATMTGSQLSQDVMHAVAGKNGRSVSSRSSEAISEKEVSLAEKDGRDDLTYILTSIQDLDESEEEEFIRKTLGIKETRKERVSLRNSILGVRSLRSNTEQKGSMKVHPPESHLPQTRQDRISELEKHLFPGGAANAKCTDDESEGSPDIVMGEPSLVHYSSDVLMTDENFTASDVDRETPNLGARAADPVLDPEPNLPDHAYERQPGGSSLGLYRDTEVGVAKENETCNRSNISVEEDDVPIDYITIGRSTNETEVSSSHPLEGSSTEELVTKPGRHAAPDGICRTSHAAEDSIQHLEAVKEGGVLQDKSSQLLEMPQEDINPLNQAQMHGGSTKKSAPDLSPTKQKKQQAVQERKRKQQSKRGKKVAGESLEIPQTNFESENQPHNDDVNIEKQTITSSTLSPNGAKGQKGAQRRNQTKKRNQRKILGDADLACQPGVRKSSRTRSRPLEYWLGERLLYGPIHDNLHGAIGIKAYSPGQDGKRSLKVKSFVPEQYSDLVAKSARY
Put plainly: EMSA. The settings on record: 10 mM Tris pH 7.5, 50 mM NaCl, 0.5 mM DTT, 0.5 mM EDTA, 1 mM MgCl2, 4% glycerol, 20 µl, on ice 20 min; 5% PAGE. (In EMSA bound probe runs differently from free probe, usually more slowly.)

The next data set addresses T2, CENPC exon 1-8 (Zea mays, UniProt Q9XHE1 1-502).
T2 sequence: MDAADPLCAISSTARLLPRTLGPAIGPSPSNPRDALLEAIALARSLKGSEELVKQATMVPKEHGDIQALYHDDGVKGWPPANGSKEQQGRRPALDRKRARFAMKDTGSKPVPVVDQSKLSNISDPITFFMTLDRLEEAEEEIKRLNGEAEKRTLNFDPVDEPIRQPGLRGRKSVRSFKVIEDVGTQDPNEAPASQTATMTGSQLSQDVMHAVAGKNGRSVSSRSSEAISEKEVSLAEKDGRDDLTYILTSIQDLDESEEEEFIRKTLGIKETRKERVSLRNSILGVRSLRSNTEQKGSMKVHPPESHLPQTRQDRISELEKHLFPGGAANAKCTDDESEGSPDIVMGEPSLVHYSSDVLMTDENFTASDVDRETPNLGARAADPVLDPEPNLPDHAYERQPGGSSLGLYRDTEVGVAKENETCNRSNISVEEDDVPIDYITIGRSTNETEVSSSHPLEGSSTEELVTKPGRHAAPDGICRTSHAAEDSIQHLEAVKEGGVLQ
The data set can be described thus: EMSA; 10 mM Tris pH 7.5, 50 mM NaCl, 0.5 mM DTT, 0.5 mM EDTA, 1 mM MgCl2, 4% glycerol, 20 µl, on ice 20 min; 5% PAGE. The settings on record: protein: recombinant; tags: His (pET28a); blunt.

The next data set addresses T3, CENPC exon 1-5.7 (Zea mays, UniProt Q9XHE1 1-399).
T3 sequence: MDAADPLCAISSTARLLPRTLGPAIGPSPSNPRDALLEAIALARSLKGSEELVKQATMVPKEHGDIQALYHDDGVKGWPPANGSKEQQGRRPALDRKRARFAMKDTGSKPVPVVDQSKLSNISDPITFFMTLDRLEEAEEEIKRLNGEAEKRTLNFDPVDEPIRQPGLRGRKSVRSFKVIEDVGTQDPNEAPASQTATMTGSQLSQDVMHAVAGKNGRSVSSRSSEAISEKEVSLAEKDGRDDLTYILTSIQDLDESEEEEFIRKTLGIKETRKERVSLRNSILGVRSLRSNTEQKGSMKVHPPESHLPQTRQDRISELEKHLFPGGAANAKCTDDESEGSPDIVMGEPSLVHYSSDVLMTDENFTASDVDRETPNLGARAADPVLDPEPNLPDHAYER
The data set is described as above. The settings on record: protein: recombinant; tags: His (pET28a); blunt.

A further data set concerns the target T4, CENPC Δexon 9-12 (Zea mays, UniProt Q9XHE1 1-701, del503-624).
T4 sequence: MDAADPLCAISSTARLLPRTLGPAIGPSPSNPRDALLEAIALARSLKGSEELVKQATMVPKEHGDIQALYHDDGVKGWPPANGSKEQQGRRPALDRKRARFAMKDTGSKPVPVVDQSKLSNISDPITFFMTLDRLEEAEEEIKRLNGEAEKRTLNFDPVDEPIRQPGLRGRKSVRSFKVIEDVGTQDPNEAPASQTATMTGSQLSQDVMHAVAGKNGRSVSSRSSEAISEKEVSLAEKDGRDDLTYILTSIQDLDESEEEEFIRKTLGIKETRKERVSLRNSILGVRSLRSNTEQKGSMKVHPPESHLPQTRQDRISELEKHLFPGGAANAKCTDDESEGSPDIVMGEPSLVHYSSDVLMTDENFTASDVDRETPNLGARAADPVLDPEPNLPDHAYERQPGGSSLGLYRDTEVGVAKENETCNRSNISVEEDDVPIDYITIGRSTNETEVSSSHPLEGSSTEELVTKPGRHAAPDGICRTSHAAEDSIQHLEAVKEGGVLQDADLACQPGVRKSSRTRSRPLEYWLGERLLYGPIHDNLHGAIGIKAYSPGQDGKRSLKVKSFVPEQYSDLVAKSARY
The data set is described as above. The settings on record: protein: recombinant; tags: His (pET28a); blunt.

The target in data set [2] is HIV integrase DNA-binding domain (IntBD) (HIV, UniProt Q9WJL1 220-270). The data set can be described thus: EMSA; no RNA; 10 mM Tris pH 7.5, 50 mM NaCl, 0.5 mM DTT, 0.5 mM EDTA, 1 mM MgCl2, 4% glycerol, 20 µl, on ice 20 min; 5% PAGE. The settings on record: chain copies: 2; blunt.

Take CentC 156 bp DSDNA: the binding signal in data set [1] was found to be 95.9 % bound.
Same read-out and setting: next, CentC 67 bp DSDNA: 85.3 % bound.

B1: CentC 44 bp DSDNA (dsDNA)
DNA 1: AATGGGTGACGTGCGGCAACGAAATTGCGCGAAACCACCCCAAA
DNA 2: TTTGGGGTGGTTTCGCGCAATTTCGTTGCCGCACGTCACCCATT
Turning to B1, the binding result in the data set with CENPC exon 1-8 is “no binding”; in the data set with CENPC exon 1-5.7, “no binding”; with CENPC Δexon 9-12 it was “no binding”; in data set [2] it was “binds”.

Values taken from PMC2816676, “DNA Binding of Centromere Protein C (CENPC) Is Stabilized by Single-Stranded RNA”.
